Data published in PMC9936545, “Diurnal Fluctuations of Orexin-A and -B in Cynomolgus Monkey Cerebrospinal Fluid Determined by a Novel Analytical Method Using Antiadsorptive Additive Treatment Followed by Nanoflow Liquid Chromatography–High-Resolution Mass Spectrometry” (ACS Chemical Neuroscience, 2023).
Where no end group is shown, it is not given here.

Key:
[1] = Processed sample stability in autosampler; format: physicochemical, cynomolgus monkey; conditions: autosampler at 10 °C
Description: Reproducibility was evaluated by intraday and interday assays of spiked quality control (QC) in the surrogate matrix (SQC) and in the real matrix (RQC). […] Carry-over was assessed by injecting blank samples immediately after a calibration standard at the upper limit of quantification. […] The preparation and storage of all CSF samples were conducted under the stable conditions described above.
Working IS solutions at 500 pg/mL were prepared by diluting the IS stock solutions with a mixture of 0.1% (w/v) bovine serum albumin and 20 mM citric acid and 0.1% (w/v) Tween 80 (final concentrations) in Dulbecco’s phosphate-buffered saline (PBS) as the surrogate matrix. The surrogate matrix was used as a blank matrix for the calibration curve, SQC samples for method qualification, and blank samples. […] RQC samples, which were monkey CSF containing 20 mM citric acid and 0.1% (w/v) Tween 80, were also prepared to confirm the parallel between the surrogate and real matrices. […] Stability was evaluated based on the difference from the initial sample. The processed sample stability was evaluated using three replicates of real matrix. […] The stored samples were reinjected with freshly processed calibration samples. The processed sample stability was evaluated to compare the back-calculated concentrations. […]

[2] = OXA and OXB in cisternal CSF collected with and without antiadsorptive additives; format: in vivo, cynomolgus monkey; conditions: cisternal CSF at 17:00, collected on different days; additives 20 mM citric acid and 0.1% (w/v) Tween 80; N = 5 for OXA, N = 4 for OXB
Description: LoBind tubes were used for preparing the nanoLC-HRMS samples. The IS working solution (60 μL) was mixed with a CSF, calibration curve, SQC, or RQC (50 μL) sample. Samples for the calibration curves were added with freshly prepared calibration standards (5 μL) corresponding to 2.5, 5, 20, 25, 50, 100, and 250 pg/mL, while DMSO (5 μL) was added to other samples. The samples were mixed with 10% (v/v) phosphoric acid (20 μL) and then centrifuged at 18,360g for 5 min at 4 °C. The supernatant (120 μL) was loaded into an HLB μElution plate and washed with 200 μL of methanol/water mixture (5:95, v/v). Orexins and ISs were eluted with 200 μL of acetonitrile/water/formic acid (80:20:0.1, v/v/v). After centrifugation at 4283g for 5 min at 4 °C, the supernatant (180 μL) was evaporated to dryness under a stream of nitrogen gas at room temperature. The precipitates were reconstituted in 40 μL of acetonitrile/water/trifluoroacetic acid (TFA) (4:96:0.01, v/v/v). After centrifugation at 12,000g for 10 min at 4 °C, the supernatant (5 μL) was used for nanoLC-HRMS.
NanoLC-HRMS was performed on an EASY-nLC 1200 system (Thermo Fisher Scientific, Inc., Waltham, MA) and a Q Exactive HF-X Orbitrap mass spectrometer (Thermo Fisher Scientific) equipped with an electrospray ionization interface. […]

[3] = Stability of OXA and OXB in real matrix (monkey CSF with 20 mM citric acid and 0.1% Tween 80); format: in vitro ADME, cynomolgus monkey
Description: Reproducibility was evaluated by intraday and interday assays of spiked quality control (QC) in the surrogate matrix (SQC) and in the real matrix (RQC). […] Carry-over was assessed by injecting blank samples immediately after a calibration standard at the upper limit of quantification.
Working IS solutions at 500 pg/mL were prepared by diluting the IS stock solutions with a mixture of 0.1% (w/v) bovine serum albumin and 20 mM citric acid and 0.1% (w/v) Tween 80 (final concentrations) in Dulbecco’s phosphate-buffered saline (PBS) as the surrogate matrix. The surrogate matrix was used as a blank matrix for the calibration curve, SQC samples for method qualification, and blank samples. […] RQC samples, which were monkey CSF containing 20 mM citric acid and 0.1% (w/v) Tween 80, were also prepared to confirm the parallel between the surrogate and real matrices. […] Stability was evaluated based on the difference from the initial sample. The processed sample stability was evaluated using three replicates of real matrix. […] The stored samples were reinjected with freshly processed calibration samples. The processed sample stability was evaluated to compare the back-calculated concentrations.

[4] = Recovery of spiked OXA and OXB during syringe and tube transfer in monkey CSF (nonspecific binding); format: physicochemical, cynomolgus monkey; conditions: nanoLC-HRMS; for recovery (%), spike recovery: spiked at final 100 pg/mL
Description: To overcome those problems, a mixture of 20 mM citric acid and 0.1% (w/v) Tween 80 (final concentrations) was added to the monkey CSF. […] Next, recovery during syringe transfer was assessed using the following procedure (Figure S2). […] Then, the spiked CSF was collected from the tube using a needle and a syringe. To the tube, 6 μL of 1M citric acid and 3 μL of 10% (w/v) Tween 80 were added, and the 300 μL of spiked CSF was returned from the syringe to the tube. The tube, the needle, and the syringe were rinsed by pipetting with CSF containing 20 mM citric acid and 0.1% (w/v) Tween 80 (final concentrations).
The samples were prepared in triplicate. […] The whole sample was removed from the tube using an injection needle (25G, Terumo Corporation, Tokyo, Japan) and a syringe (Terumo Corporation, Tokyo, Japan). Then, 1 M citric acid (6 μL) and 10% (w/v) Tween 80 (3 μL) were added to the empty tube to reach the final concentrations of 20 mM and 0.1%. The sample was returned from the syringe to the tube. The tube and syringe were then rinsed by pipetting five times with the CSF containing 20 mM citric acid and 0.1% (w/v) Tween 80. Finally, the whole sample was transferred to another tube. Recovery during tube transfer was assessed after repeating the procedure three times with monkey CSF containing 20 mM citric acid and 0.1% (w/v) Tween 80. The reference sample was prepared without syringe transfer, pipetting, or tube transfer. Recovery was calculated based on the quantitative values, which were the total values of endogenous and spiked orexins, in the testing samples to that in the reference sample.
CSF collection from cynomolgus monkey (A). Eppendorf Protein LoBind® tubes (1.5mL) were used for sample preparation. The syringe and needle used for CSF collection were washed by pipetting five times with collected CSF including anti- adsorptive additives to prevent non-specific adsorption to the instruments. Recovery test during syringe and tube transfer (B). Eppendorf Protein LoBind® tubes (1.5mL) were used for sample preparation. A tube containing neat CSF spiked with the standards for
The spiked CSF was collected from the tube using a needle and a syringe.
The tube, the needle, and the syringe were rinsed by pipetting five times w ith CSF containing citric acid/Tween 80.

With “Orexin-A (QPLPDCCRQKTCSCRLYELLHGAGNHAAGILTL; not fully specified; ends and bridges not checked; UniProt O43612 34-66, looked up) [OXA, 33-amino acid peptide with N-terminal pyroglutamylation, amidation of the C-terminal leucine, and two intramolecular disulfide bridges]” the “time stable in autosampler (processed sample stability)” value ([1]; processed real-matrix samples, reconstituted in acetonitrile/water/TFA (4:96:0.01), three replicates) was “at least 48 h”, the “percent remaining after 48 h, difference from the initial analysis” value ([1]; processed samples, 48 h, three replicates of real matrix, within ±) was ≤ 15% and the “concentration ratios between samples without and with the antiadsorptive additives, mean” value [2] was 30.7%. For the same substance, the “percent difference in QC samples for stability evaluation from the initial sample” value ([3]; freeze–thaw (3 cycles, −80 °C), room temperature 2 h, −80 °C 60 days, real matrix QC in triplicate, within ±) was ≤ 15%, the “stability in real matrix, three freeze–thaw cycles” value ([3]; monkey CSF with 20 mM citric acid and 0.1% (w/v) Tween 80, unspiked and spiked (25 and 125 pg/mL) QC samples in triplicate, three freeze–thaw cycles at −80 °C, nanoLC-HRMS) was “stable” and the “stability in real matrix at room temperature” value ([3]; monkey CSF with 20 mM citric acid and 0.1% (w/v) Tween 80, unspiked and spiked QC samples in triplicate, room temperature for 2 h, nanoLC-HRMS) was “stable”. The “stability in real matrix at −80 °C” value ([3]; monkey CSF with 20 mM citric acid and 0.1% (w/v) Tween 80, unspiked and spiked QC samples in triplicate, −80 °C for 60 days, nanoLC-HRMS) was “stable”, the “recovery (%), tube transfer (3 times)” value ([4]; monkey CSF containing 20 mM citric acid/0.1% (w/v) Tween 80, three tube transfers, LoBind tubes, mean ± SD, N = 3) was 105.2 ± 12.1% and the “recovery (%), syringe and tube transfer” value ([4]; monkey CSF spiked with OXA and OXB (3 μL of 10 ng each/mL in DMSO + 297 μL CSF), LoBind tube, 25G needle and syringe, 20 mM citric acid/0.1% (w/v) Tween 80 added after syringe collection, rinsed by pipetting five times, vs reference sample, mean ± SD, N = 3) was 100.6 ± 9.4%. For the same substance, the “recovery (%), spike recovery” value ([4]; monkey CSF with 20 mM citric acid/0.1% (w/v) Tween 80, mean ± SD, N = 3) was 107.1 ± 3.8%, the recovery ([4]; monkey CSF with addition of 0.01% (v/w) Tween 80 alone) was 106.1% and the “recovery (%), spike recovery” value ([4]; neat monkey CSF, no additives, mean ± SD, N = 3) was 41.6 ± 3.9%.
